Data: publication PMC7517697

Test system: T1, CATH-B1 (mature cathelicidin-B1 peptide) (chicken)
T1 sequence: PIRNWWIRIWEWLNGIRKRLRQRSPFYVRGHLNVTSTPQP
Assay: ITC
Details: 75% PBS, 37 °C, dH -65.5 kJ/mol, dS -73.5 J/mol as printed, ITC: 75% PBS (PBS/H2O 3:1 v/v), 200 µM CATH-B1 in syringe titrated in 1 µL injections at 300 s intervals into ODN-2006 (25 nM as printed), pH not stated

## ODN-2006
  Kd: 64 nM
